This is an account of results in publication PMC9969416 (Endocrinology, 2023).

The series deals with the molecule itself. Nature of the series: crystal structure.

B1: ligand-binding domain (LBD) of human RXRα (residues 223-462) (domain or fragment)
chain: TSSANEDMPVERILEAELAVEPKTETYVEANMGLNPSSPNDPVTNICQAADKQLFTLVEWAKRIPHFSELPLDDQVILLRAGWNELLIASFSHRSIAVKDGILLATGLHVHRNSAHSAGVGAIFDRVLTELVSKMRDMQMDKTELGCLRAIVLFNPDSKGLSNPAEVEALREKVYASLEAYCKHKYPEQPGRFAKLLLRLPALRSIGLKCLEHLFFFKLIGDTPIDTFLMEMLEAPHQMT
With B1, the binding result was “binds”.
